# From patent US20240182536A1 (MURAL ONCOLOGY, published 2024)
# Substitutions are numbered along the chain they refer to. Names may count otherwise.
# T1: interleukin 18 binding protein (IL-18BP) (UniProt O95998 31-194)
# T1 sequence (looked up): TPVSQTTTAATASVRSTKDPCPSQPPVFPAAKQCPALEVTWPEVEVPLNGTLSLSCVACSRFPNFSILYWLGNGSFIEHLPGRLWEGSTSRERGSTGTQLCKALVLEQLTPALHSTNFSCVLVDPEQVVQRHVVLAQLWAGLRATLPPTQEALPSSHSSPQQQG
# T2: IL-18 receptors on HEK-Blue IL-18 reporter cells (UniProt Q13478 19-541; O95256 20-599, limits assumed)
# T2 sequence (looked up) 1: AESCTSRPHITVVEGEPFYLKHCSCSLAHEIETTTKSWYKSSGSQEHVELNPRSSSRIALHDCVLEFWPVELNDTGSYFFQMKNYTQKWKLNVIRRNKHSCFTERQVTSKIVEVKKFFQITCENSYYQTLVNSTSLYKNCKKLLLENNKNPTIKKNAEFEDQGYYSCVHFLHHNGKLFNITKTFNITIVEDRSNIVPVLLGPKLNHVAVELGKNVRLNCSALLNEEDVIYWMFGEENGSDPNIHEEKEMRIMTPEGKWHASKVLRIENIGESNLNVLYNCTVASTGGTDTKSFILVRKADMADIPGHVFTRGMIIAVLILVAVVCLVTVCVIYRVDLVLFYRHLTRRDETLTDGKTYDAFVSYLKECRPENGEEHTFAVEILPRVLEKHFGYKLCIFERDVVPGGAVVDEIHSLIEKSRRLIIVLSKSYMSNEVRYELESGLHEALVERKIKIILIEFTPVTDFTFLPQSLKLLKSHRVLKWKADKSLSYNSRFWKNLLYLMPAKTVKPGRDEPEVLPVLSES
# T2 sequence (looked up) 2: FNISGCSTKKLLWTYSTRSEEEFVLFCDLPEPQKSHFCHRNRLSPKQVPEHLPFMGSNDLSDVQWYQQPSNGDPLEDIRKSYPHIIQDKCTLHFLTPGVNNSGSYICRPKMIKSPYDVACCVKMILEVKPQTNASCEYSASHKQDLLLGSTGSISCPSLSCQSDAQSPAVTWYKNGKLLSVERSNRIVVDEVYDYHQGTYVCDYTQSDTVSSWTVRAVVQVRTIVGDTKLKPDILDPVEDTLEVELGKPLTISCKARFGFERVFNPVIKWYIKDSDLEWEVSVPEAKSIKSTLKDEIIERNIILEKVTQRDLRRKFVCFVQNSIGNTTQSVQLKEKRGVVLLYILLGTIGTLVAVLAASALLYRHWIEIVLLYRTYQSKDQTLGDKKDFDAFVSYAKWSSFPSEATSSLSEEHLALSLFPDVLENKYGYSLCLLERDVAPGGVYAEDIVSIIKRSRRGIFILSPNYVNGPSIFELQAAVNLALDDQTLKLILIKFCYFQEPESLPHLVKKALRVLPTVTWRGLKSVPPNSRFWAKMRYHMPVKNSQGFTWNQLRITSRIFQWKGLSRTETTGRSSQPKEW
# B1: IL-18 variant K53H, S55G (ligand)
# chain: YFGKLESKLSVIRNLNDQVLFIDQGNRPLFEDMTDSDMRDNAPRTIFIISMYHDGQPRGMAVTISVKSEKISTLSSENKIISFKEMNPPDNIKDTKSDIIFFQRSVPGHDNKMQFESSSYEGYFLASEKERDLFKLILKKEDELGDRSIMFTVQNED
# B2: IL-18 variant K53T, S55G, P107A, H109Q (ligand)
# chain: B1 chain with H53T, P107A, H109Q
# B3: IL-18 variant K53D, S55E (ligand)
# chain: B1 chain with H53D, G55E
# B4: IL-18 variant K53H, S55M (ligand)
# chain: B1 chain with G55M
# B5: IL-18 variant K53H, S55M, T63S (ligand)
# chain: B1 chain with G55M, T63S
# B6: IL-18 variant K53D, S55N, H109I (ligand)
# chain: B1 chain with H53D, G55N, H109I
# B7: IL-18 variant K53G, S55V, R104Y, H109N (ligand)
# chain: B1 chain with H53G, G55V, R104Y, H109N
# B8: IL-18 variant K53N, S55H, H109F (ligand)
# chain: B1 chain with H53N, G55H, H109F
# Tests used:
# [1] = target: T1, interleukin 18 binding protein (IL-18BP); assay: cell-based or functional assay
# [2] = target: T2, IL-18 receptors on HEK-Blue IL-18 …; assay: cell-based or functional assay
Binder,"HEK-Blue activity, +100 nM BP, DF-10000 [1]","HEK-Blue activity, +100 nM BP, DF-100,000 [1]","HEK-Blue activity, +100 nM BP, DF-1,000,000 [1]","Ratio (-BP/+BP), DF-10000 [1]","Ratio (-BP/+BP), DF-100,000 [1]","Ratio (-BP/+BP), DF-1,000,000 [1]","HEK-Blue activity, No BP, DF-10000 [2]","HEK-Blue activity, No BP, DF-100,000 [2]","HEK-Blue activity, No BP, DF-1,000,000 [2]"
B1,0.12,0.09,0.08,1.08,1.04,1.02,0.13,0.1,0.08
B2,0.12,0.16,0.12,1.1,0.63,0.87,0.13,0.1,0.11
B3,0.11,0.09,0.08,1.22,1.07,1.08,0.13,0.09,0.09
B4,0.12,0.09,0.09,1.12,1.03,1.09,0.13,0.1,0.09
B5,0.18,0.12,0.11,0.72,0.83,0.83,0.13,0.1,0.09
B6,0.1,0.09,0.09,1.28,1.42,0.99,0.13,0.12,0.09
B7,0.11,0.14,0.1,1.17,0.9,1.02,0.13,0.12,0.1
B8,0.11,0.09,0.09,1.17,1.06,1.17,0.13,0.1,0.1
